In patent publication US20230257470A1 (published 2023):

T1: human FcγRIIa(R) (human, UniProt P12318 36-217)
T1 construct: Soluble analyte in SPR; also called FcgRIIaR; FcγRIIa type R
T1 chain: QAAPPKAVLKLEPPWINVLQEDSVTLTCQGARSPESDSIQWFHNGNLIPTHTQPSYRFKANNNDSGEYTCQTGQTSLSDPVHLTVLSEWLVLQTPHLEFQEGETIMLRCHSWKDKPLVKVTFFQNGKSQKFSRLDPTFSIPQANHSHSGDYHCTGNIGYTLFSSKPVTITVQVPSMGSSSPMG


How the values were obtained:
human FcγRIIa(R) = molecular target: T1, human FcγRIIa(R); assay: SPR, captured antibody, FcγR as analyte
Description: (§1) Interaction between each modified antibody and Fcγ receptor prepared in the manner described above was analyzed using the BIACORE™ T100 surface plasmon resonance system (GE Healthcare), BIACORE™ T200 surface plasmon resonance system (GE Healthcare), BIACORE™ A100 surface plasmon resonance system or BIACORE™ 4000 surface plasmon resonance system. HBS-EP+(GE Healthcare) was used for the running buffer, and measurements were carried out at 25° C. The chips used were chips in which antigen peptides, Protein A (Thermo Scientific), Protein A/G (Thermo Scientific) or Protein L (ACTIGEN® protein (Alltech or BioVision) were immobilized on the Series S Sensor Chip CM5 (GE Healthcare) or Series S Sensor Chip CM4 (GE Healthcare) by amine coupling, or chips in which preliminarily biotinylated antigen peptides were allowed to interact and then immobilized on the Series S Sensor Chip SA (certified) (GE Healthcare). The target antibodies were captured on these sensor chips, Fcγ receptor diluted with the running buffer was allowed to interact, followed by measurement of the amount of bound antibody. The amounts bound were compared between antibodies. However, since the amount of Fcγ receptor bound depends on the amount of captured antibody, the values used for comparison were first corrected by dividing the amount of Fcγ receptor bound by the captured amount of each antibody. Through reaction with 10 mM glycine-HCl at pH 1.5, the sensor chips were regenerated by washing off antibody captured on the sensor chips and used repeatedly.
(§2) Binding strength was evaluated according to the following method based on the results of analyzing the interaction with each FcγR. […] That value was then further multiplied by 100, and the resulting value was used as an indicator of relative binding activity to each FcγR.

human FcγRIIIa(F) = molecular target: T2, human FcγRIIIa(F) (human, UniProt P08637 17-208, limits assumed); assay: SPR, captured antibody, FcγR as analyte
T2 construct: Soluble analyte in SPR; allotype F158 stood in the assay; also called FcgRIIIaF; FcγRIIIa allotype F158
T2 sequence (P08637 other isoform, or with tags, fused parts or gaps limits assumed): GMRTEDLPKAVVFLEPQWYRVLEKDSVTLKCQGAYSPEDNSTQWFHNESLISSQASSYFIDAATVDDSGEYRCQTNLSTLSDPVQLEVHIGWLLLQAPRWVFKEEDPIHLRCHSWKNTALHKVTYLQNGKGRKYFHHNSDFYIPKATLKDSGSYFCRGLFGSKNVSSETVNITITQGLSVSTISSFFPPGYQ
Description: as §1, §2

relative binding activity (human FcγRIIa(R)) | relative binding activity (human FcγRIIIa(F)) | Binder
1 % of GpH7-B3/GpL16-k0 | – | GpH7-B3 variant D265F/GpL16-k0 (antibody, human IgG1, copies: 2 + 2) heavy: not shown light: DIVMTQSPLSLPVTPGEPASISCQASESLVHSNRNTYLHWYLQKPGQSPQLLIYKVSNRFSGVPDRFSGSGSGTDFTLKISRVEAEDVGVYYCSQNTHVPPTFGQGTKVEIE
– | 1 % of GpH7-B3/GpL16-k0 | GpH7-B3 variant P238W/GpL16-k0 (antibody, human IgG1, copies: 2 + 2) heavy: not shown light: DIVMTQSPLSLPVTPGEPASISCQASESLVHSNRNTYLHWYLQKPGQSPQLLIYKVSNRFSGVPDRFSGSGSGTDFTLKISRVEAEDVGVYYCSQNTHVPPTFGQGTKVEIE
